Assay results as given in patent US20240218342A1, “SITE-SPECIFIC GLYCAN REMODELING OF LYSOSOMAL ENZYMES AND APPLICATIONS THEREOF” (priority 2021, published 2024).

Molecular target: Recombinant human IGF-II R (CI-MPR) (Homo sapiens, UniProt P11717)
Assay: SPR binding to immobilized CI-MPR
Conditions: 25° C., three independent experiments
Experimental: Surface Plasmon Resonance (SPR) Measurements. SPR measurements were performed on a Biacore T200 instrument (GE Healthcare). Recombinant human IGF-II R (CI-MPR) was purchased from R&D Systems. Approximately 7000 resonance units (RU) of CI-MPR was immobilized on a CM5 sensor chip in a sodium acetate buffer (25 μg/mL, pH 4.0) at 25° C., using the amine coupling kit provided by the manufacturer. Mannose 6-phosphates containing glycopeptides or glycoproteins were determined at 25° C. under a flow rate of 10 μL/min. HBS-P+ buffer (10 mM HEPES, 150 mM NaCl, 0.05% surfactant P20, pH 7.4) was used as sample buffer and running buffer. Association was measured for 3 min and dissociation for 10 min at the same flow rate (10 μL/min). […] Synthetic glycopeptide and glycoprotein analytes flowed over an immobilized chip with 2-fold serial dilution of the highest concentration of 4 μM (for glycopeptides) or 1 μM (for RNase B) or 250 nM (for rhGAA). Kinetic analyses were performed by global fitting of the binding data to a 1:1 Langmuir binding model using BIAcore T200 evaluation software.

Sequence of Recombinant human IGF-II R (CI-MPR) (P11717 41-2491): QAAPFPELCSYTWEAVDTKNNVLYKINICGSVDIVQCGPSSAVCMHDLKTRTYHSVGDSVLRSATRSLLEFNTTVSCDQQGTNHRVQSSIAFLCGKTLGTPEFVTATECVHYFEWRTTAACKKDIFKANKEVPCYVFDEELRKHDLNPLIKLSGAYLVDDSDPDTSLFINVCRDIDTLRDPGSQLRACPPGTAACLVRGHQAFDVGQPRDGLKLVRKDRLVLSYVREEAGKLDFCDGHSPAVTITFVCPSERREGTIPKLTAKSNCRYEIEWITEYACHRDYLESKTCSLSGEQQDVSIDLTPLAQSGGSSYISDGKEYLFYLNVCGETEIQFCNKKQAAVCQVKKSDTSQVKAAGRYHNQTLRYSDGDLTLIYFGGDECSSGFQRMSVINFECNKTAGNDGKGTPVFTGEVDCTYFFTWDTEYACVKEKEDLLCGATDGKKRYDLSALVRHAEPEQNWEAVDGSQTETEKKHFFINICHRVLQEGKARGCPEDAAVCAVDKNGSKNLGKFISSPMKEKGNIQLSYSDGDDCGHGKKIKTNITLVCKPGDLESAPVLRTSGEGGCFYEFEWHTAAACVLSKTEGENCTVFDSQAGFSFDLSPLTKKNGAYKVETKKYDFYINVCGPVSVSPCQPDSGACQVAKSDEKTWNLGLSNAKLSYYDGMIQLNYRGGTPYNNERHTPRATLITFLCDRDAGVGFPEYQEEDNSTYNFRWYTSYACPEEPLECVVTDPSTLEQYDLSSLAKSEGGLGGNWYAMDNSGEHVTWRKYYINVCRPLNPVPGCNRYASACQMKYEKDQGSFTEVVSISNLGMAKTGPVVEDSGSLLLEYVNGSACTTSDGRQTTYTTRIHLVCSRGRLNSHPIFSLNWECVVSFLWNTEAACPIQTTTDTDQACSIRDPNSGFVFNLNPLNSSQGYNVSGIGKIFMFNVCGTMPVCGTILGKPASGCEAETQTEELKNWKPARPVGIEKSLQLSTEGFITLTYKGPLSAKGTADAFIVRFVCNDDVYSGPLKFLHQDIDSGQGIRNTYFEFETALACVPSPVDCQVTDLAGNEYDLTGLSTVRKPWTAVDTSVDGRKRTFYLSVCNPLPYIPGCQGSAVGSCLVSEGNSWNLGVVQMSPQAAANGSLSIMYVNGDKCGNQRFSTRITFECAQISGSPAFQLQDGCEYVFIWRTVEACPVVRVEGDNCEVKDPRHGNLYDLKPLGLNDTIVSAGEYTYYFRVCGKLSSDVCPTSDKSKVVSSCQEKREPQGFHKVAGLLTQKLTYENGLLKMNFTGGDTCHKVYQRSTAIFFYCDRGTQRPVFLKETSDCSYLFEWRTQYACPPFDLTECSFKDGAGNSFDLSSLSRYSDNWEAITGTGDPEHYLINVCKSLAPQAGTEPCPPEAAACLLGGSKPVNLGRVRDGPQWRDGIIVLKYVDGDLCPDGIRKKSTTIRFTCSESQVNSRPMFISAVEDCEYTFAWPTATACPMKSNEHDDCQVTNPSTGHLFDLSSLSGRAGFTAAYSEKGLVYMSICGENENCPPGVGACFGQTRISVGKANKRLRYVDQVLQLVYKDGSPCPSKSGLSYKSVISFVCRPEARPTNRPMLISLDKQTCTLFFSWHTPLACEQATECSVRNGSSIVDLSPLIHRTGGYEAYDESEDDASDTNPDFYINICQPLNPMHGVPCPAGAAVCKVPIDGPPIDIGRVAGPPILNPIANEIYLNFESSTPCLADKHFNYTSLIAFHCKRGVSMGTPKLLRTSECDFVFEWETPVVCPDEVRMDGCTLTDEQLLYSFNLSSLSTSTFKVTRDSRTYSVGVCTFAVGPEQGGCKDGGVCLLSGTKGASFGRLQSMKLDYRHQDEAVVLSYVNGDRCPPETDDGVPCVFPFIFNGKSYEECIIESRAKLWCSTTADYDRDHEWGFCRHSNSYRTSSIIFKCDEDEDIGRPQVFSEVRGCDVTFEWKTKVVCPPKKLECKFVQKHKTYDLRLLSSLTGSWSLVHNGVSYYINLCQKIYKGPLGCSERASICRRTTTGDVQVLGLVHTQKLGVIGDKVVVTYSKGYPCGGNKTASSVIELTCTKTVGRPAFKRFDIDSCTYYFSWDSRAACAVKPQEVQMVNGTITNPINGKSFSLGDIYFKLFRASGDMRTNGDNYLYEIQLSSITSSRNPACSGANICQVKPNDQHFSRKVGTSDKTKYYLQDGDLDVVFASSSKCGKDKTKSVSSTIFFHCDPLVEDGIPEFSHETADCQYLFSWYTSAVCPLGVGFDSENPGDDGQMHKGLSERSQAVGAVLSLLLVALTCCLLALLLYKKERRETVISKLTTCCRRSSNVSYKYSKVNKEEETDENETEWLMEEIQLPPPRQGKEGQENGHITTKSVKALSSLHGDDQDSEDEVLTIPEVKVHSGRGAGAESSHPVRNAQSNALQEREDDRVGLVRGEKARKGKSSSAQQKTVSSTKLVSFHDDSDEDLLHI

B1: Glycoprotein 68: phosphorylated glycoprotein from GlcNAc-RNase B and oxazoline 8 under wild-type Endo-A catalysis (protein)
chain: KETAAAKFERQHMDSSTSAASSSNYCNQMMKSRNLTKDRCKPVNTFVHESLADVQAVCSQKNVACKNGQTNCYQSYSTMSITDCRETGSSKYPNCAYKTTQANKHIIVACEGNPYVPVHFDASV
modifications: Asn-34 carries GlcNAc extended with M6P tetrasaccharide oxazoline 8 (Man6P-α1,2-Man-α1,3-Man-β1,4-GlcNAc)
  Kd: 15.8 nM
